Laboratory results from article PMC5392361 (Nature chemical biology, 2017).

Assays:
[1] = target: T1, Sulfolobus solfataricus Rrp41-Rrp42 exosome core (Sulfolobus solfataricus, UniProt Q9UXC2 1-248; Q9UXC0 1-275); assay: pull-down
T1 sequence 1: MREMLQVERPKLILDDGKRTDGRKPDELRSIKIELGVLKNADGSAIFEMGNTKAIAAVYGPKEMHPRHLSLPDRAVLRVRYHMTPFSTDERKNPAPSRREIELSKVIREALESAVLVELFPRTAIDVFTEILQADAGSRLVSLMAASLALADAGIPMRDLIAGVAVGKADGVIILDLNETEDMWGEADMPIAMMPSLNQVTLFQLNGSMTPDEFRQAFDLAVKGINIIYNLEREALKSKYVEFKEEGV
T1 sequence 2: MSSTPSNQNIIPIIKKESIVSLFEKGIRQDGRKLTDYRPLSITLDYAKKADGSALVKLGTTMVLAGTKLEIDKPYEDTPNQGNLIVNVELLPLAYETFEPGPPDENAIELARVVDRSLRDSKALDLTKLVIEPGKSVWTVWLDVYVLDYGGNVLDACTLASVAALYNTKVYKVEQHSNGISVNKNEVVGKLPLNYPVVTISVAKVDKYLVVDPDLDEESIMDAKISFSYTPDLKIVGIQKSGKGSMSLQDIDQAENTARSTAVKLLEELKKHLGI

Rrp4-exosome WT = target: T2, Rrp4-exosome WT (Sulfolobus solfataricus, UniProt Q9UXC4;Q9UXC2;Q9UXC0 1-249;1-248;1-275); assay: fluorescence anisotropy
T2 sequence 1: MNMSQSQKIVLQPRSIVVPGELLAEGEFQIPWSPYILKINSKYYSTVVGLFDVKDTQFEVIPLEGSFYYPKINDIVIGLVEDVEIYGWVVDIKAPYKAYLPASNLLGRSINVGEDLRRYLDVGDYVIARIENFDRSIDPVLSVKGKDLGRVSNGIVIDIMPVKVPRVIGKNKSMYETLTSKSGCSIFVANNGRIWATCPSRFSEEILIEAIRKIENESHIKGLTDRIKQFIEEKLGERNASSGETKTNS
T2 sequence 2: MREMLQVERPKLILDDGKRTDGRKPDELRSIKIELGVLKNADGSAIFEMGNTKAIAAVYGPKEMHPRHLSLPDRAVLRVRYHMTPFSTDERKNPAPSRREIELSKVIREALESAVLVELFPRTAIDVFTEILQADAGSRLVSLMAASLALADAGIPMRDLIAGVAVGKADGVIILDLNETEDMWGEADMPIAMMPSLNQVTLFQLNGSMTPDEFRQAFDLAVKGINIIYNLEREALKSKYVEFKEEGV
T2 sequence 3: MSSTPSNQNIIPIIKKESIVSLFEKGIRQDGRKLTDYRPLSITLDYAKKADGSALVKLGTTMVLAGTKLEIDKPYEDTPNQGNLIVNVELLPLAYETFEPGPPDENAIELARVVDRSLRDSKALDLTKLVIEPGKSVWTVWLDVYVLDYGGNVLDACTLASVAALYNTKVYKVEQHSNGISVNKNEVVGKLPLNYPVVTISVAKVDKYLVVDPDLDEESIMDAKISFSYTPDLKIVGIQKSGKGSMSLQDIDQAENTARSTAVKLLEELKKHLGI

[2] = target: T3, Rrp4-exosome, Rrp4 3MS K38M (Sulfolobus solfataricus, UniProt Q9UXC4;Q9UXC2;Q9UXC0 1-249;1-248;1-275, M1S;M3S;K38M); assay: NMR methyl TROSY CSP
T3 sequence 1: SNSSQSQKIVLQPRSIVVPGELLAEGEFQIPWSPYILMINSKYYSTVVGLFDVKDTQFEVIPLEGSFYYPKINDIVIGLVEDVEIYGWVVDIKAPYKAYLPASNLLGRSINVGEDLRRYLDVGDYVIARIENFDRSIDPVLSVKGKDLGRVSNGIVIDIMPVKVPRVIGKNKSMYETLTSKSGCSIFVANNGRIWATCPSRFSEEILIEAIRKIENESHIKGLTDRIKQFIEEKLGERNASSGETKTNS
T3 sequence 2: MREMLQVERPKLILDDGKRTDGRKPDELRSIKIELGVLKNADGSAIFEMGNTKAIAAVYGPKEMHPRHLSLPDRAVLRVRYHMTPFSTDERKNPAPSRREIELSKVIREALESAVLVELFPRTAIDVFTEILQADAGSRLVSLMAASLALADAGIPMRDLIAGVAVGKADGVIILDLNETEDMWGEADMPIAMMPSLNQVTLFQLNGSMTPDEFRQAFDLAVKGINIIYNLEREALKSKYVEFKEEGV
T3 sequence 3: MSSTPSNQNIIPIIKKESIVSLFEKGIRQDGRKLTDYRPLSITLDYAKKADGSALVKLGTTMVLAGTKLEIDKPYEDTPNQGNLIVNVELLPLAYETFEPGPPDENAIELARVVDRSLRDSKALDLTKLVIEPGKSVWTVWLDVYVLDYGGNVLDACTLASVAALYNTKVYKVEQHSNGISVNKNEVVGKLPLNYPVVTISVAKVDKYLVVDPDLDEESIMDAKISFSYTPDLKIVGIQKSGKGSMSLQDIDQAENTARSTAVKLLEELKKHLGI

[3] = target: T4, Rrp4-exosome, Rrp4 KNK170ENQ (Sulfolobus solfataricus, UniProt Q9UXC4;Q9UXC2;Q9UXC0 1-249;1-248;1-275, M1S;M3S;K170E;K172Q); assay: NMR line-shape titration
T4 sequence 1: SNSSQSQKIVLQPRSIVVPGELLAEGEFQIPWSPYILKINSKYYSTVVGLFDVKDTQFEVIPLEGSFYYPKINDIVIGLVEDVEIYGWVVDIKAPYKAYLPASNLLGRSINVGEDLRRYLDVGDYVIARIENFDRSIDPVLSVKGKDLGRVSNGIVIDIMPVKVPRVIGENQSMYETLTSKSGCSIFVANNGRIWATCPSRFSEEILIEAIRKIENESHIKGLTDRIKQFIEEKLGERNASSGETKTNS
T4 sequence 2: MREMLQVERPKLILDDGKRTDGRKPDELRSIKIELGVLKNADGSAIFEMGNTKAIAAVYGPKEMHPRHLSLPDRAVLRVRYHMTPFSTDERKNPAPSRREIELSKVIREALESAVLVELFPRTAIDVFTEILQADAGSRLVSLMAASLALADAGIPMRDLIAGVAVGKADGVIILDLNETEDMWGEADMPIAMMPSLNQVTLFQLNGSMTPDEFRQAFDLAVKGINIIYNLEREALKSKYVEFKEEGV
T4 sequence 3: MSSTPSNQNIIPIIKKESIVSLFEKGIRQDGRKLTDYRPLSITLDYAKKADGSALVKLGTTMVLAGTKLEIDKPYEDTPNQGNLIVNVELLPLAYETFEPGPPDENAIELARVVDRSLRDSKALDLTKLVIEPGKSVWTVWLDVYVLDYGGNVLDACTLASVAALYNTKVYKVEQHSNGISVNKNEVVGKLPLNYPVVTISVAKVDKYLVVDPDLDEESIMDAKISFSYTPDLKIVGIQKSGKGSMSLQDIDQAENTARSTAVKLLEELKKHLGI

[4] = target: T5, Rrp4-exosome, Rrp4 3MS N171M (Sulfolobus solfataricus, UniProt Q9UXC4;Q9UXC2;Q9UXC0 1-249;1-248;1-275, M1S;M3S;N171M); assay: NMR methyl TROSY CSP
T5 sequence 1: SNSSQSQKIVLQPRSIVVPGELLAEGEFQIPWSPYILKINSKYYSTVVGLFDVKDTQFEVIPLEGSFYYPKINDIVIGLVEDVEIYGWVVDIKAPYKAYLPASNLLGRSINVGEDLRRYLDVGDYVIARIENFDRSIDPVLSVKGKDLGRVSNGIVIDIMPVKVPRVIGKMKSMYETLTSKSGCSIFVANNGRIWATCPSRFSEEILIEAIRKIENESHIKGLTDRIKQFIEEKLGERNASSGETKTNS
T5 sequence 2: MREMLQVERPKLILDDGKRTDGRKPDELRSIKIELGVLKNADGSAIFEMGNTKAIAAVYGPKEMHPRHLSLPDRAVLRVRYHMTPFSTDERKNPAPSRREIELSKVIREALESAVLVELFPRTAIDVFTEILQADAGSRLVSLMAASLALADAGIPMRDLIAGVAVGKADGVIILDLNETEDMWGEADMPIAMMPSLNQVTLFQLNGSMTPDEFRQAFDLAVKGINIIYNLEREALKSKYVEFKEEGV
T5 sequence 3: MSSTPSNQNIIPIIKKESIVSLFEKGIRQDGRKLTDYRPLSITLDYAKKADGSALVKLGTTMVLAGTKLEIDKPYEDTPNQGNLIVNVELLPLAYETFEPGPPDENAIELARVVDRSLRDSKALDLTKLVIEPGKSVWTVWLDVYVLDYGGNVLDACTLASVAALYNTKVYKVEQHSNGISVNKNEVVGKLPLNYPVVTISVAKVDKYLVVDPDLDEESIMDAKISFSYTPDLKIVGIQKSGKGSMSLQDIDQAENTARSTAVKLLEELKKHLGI

B1: Sulfolobus solfataricus Rrp4 exosome cap protein (natural protein, UniProt Q9UXC4 1-249, looked up)
chain: MNMSQSQKIVLQPRSIVVPGELLAEGEFQIPWSPYILKINSKYYSTVVGLFDVKDTQFEVIPLEGSFYYPKINDIVIGLVEDVEIYGWVVDIKAPYKAYLPASNLLGRSINVGEDLRRYLDVGDYVIARIENFDRSIDPVLSVKGKDLGRVSNGIVIDIMPVKVPRVIGKNKSMYETLTSKSGCSIFVANNGRIWATCPSRFSEEILIEAIRKIENESHIKGLTDRIKQFIEEKLGERNASSGETKTNS
B1: binds [1].

B2: long RNA (4-thio-U, fluorescein) (structured_RNA)
RNA: GCCCCCCCCGAAAGGGGGGGGAAAAAAAAAAAAAAAAAAAAAUAAAAAAAAAAAGCU
modifications: 4-thiouridine at the single U within the A tail (written U)
B2 showed a Kd (Rrp4-exosome WT) of 0.0675 ± 0.0227 µM.

B3: NMR substrate RNA (hairpin-A32, cyclic phosphate) (structured_RNA)
RNA: GCCCCCCCCGAAAGGGGGGGGAAAAAAAAAAAAAAAAAAAAAAAAAAAAAAAA
modifications: 2'-3' cyclic phosphate at 3' end
With B3 the binding result [2] was “binds”, the Kd [3] was 60.5 ± 4.6 µM and the binding result [4] was “binds”.
